Experimental data as given in US20080220459.

Assays:
[1] = system: bovine collagen alpha1 (IX) in bovine nasal cartilage explants
[2] = target: human collagen alpha1 (IX) in human articular cartilage (UniProt P20849)
Chain of human collagen alpha1 (IX) in human articular cartilage (P20849 24-921): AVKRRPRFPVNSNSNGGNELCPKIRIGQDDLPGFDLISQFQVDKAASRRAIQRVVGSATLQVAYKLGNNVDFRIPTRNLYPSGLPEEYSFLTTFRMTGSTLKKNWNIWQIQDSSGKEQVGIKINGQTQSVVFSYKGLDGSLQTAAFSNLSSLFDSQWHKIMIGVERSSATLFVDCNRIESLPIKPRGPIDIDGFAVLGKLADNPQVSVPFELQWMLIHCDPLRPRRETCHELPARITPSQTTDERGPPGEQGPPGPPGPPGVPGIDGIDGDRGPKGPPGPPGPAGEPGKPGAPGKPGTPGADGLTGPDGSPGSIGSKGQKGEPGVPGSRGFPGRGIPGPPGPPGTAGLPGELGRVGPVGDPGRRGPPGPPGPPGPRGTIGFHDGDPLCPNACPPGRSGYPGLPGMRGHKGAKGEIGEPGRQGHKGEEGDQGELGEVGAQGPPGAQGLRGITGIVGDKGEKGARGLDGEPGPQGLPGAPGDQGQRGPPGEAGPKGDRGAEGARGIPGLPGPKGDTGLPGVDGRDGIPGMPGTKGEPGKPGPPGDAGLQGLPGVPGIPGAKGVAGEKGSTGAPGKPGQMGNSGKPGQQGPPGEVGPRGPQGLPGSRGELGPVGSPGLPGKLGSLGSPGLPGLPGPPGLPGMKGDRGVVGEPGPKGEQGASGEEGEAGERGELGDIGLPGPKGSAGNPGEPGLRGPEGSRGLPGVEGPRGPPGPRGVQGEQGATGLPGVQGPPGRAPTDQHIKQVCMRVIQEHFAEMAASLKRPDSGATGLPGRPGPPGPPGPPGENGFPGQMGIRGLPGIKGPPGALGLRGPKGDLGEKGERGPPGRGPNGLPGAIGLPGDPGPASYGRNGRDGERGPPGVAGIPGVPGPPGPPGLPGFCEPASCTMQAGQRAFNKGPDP

In the case of matrix metalloproteinase 13 (MMP-13), the “cleavage of collagen alpha1 (IX) in cartilage explants (Western blot and LC-MS of released fragments)” value [1] is reported as “Bovine nasal cartilage explants were digested with MMP-13 and indeed the enzyme cleaved collagen α1 (IX)” and the “cleavage of collagen alpha1 (IX) in human articular cartilage (Western blot and LC-MS of the released 30 kD fragment)” value [2] is reported as “a peptide representing a potentially new cleavage site CHELPARITPSQ^263-COOH (SEQ ID NO:6) NH2-TTDERGPP- (SEQ ID NO:7)”.
